Measured values published in article PMC4081100, “A DNA-binding-site landscape and regulatory network analysis for NAC transcription factors in Arabidopsis thaliana”.

Columns and labels:
GST-ANAC092(1-176) = biological target: T1, GST-ANAC092(1-176) (Arabidopsis thaliana, UniProt Q9FKA0 1-176); assay: EMSA; EMSA with 75 pM 32P-labelled DNA, binding buffer as in cited refs 7 and 36; oligos annealed in 20 mM Tris-HCl pH 8.0, 20 mM MgCl2; conditions: protein: recombinant, tags: GST, chain copies: 2, label: 32P
T1 sequence: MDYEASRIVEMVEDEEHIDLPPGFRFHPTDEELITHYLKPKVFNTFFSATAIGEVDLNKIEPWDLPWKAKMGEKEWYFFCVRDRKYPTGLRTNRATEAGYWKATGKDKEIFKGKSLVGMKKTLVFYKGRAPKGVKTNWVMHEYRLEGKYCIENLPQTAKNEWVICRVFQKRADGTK

GST-NTL6(1-168) = GST-NTL6(1-168) (Arabidopsis thaliana, UniProt Q9SCK6 1-168); assay: as above; conditions: protein: recombinant; tags: GST; chain copies: 2; label: 32P; 5' overhangs 4 nt (GATC) on both strands
GST-NTL6(1-168), sequence (Q9SCK6 1-168): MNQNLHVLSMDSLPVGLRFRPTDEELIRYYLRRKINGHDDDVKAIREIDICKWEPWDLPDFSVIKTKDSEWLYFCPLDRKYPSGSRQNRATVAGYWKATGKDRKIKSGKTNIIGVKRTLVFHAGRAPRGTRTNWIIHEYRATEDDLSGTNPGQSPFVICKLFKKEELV

B1: MYB90 WT promoter (dsDNA)
DNA 1: GATCAGGTTCAGCTACGTCACCGATCCAGG
DNA 2: GATCCCTGGATCGGTGACGTAGCTGAACCT
B1: binds (GST-ANAC092(1-176); 5' overhangs 4 nt (GATC) on both strands); no binding (GST-NTL6(1-168)).

B2: PalNACBS (dsDNA)
DNA 1: CAGTCTTGCGTGTTGGAACACGCAACAGTC
DNA 2: GACTGTTGCGTGTTCCAACACGCAAGACTG
B2: binds (GST-ANAC092(1-176); blunt).

B3: MYB90Synth (Synthetic promoter) (dsDNA)
DNA 1: GATCAGGTTCAGCTAAGTAACCGATCCAGG
DNA 2: GATCCCTGGATCGGTTACTTAGCTGAACCT
B3: binds (GST-NTL6(1-168)).
